The text below walks through data of PMC10253590, “The Product of the Fission Yeast fhl1 Gene Binds to the HomolE Box and Activates In Vitro Transcription of Ribosomal Protein Genes”.

Data set [1] deals with T1, Fhl1 (Schizosaccharomyces pombe, UniProt O14270 1-743).
T1 sequence: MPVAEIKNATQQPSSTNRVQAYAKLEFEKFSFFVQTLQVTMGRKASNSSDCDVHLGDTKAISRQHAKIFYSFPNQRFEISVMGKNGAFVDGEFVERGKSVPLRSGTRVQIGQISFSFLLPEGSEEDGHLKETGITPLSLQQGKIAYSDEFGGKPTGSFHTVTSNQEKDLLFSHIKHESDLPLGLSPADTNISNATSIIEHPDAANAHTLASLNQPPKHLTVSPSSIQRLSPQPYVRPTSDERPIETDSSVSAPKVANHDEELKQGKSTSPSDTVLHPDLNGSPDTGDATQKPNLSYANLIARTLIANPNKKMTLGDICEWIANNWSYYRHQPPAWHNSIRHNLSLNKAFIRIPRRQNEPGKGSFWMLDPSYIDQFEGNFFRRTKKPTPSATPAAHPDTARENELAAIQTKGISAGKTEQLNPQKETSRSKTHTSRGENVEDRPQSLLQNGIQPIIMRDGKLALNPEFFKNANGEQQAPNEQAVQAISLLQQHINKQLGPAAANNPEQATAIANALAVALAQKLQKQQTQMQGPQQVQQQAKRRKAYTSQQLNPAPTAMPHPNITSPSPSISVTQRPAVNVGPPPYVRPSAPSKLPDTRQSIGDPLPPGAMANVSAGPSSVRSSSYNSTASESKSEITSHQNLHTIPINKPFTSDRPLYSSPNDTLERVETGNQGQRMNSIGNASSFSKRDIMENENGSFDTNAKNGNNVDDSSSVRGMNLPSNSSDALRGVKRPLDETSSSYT
Nature of the data set: competition; EMSA; 50 ng cold competitor vs N1 probe; 20 mM HEPES pH 7.9, 50 mM KCl, 10 mM MgCl2, 0.1 mM EDTA, 5% glycerol, 5 mM DTT, 0.1 mM PMSF, 5 ug acetylated BSA, 50 ng poly(dG-dC), no PEG; 5 min 25 C then 15. The note with it: protein: recombinant; tags: His tag (pET15b; Ni-NTA purified). Background: Mobility shift assays separate free from complexed probe on a gel.

For data set [2], the target named is T1, Fhl1. Nature of the data set: competition; EMSA; 12.5, 25, 50 ng cold competitor vs N1 probe; 20 mM HEPES pH 7.9, 50 mM KCl, 10 mM MgCl2, 0.1 mM EDTA, 5% glycerol, 5 mM DTT, 0.1 mM PMSF, 5 ug acetylated BSA, 50 ng poly(dG-dC), no PEG; 5 min 25 C then 15. Particulars: protein: recombinant; tags: His tag (pET15b; Ni-NTA purified).
Data set [3] concerns the target T1, Fhl1. The data set can be described thus: EMSA; 10 ng Fhl1; poly(dG-dC); 20 mM HEPES pH 7.9, 50 mM KCl, 10 mM MgCl2, 0.1 mM EDTA, 5% glycerol, 5 mM DTT, 0.1 mM PMSF, 5 ug acetylated BSA, 50 ng poly(dG-dC), no PEG; 5 min 25 C then 15. Particulars: protein: recombinant; tags: His tag (pET15b; Ni-NTA purified); label: 32P 5' end.

B1: HD (HomolD) cold competitor (dsDNA)
DNA 1: TGAAAACAGTCACATTTTAC
DNA 2: GTAAAATGTGACTGTTTTCA
With B1, the binding result in the data set with Fhl1 [1] is “no binding”.

B2: HE cold competitor (dsDNA)
DNA 1: TTCGTTGAGGGTAGGGTTGC
DNA 2: GCAACCCTACCCTCAACGAA
In the case of B2, in the data set with Fhl1 [2], the binding result is “binds”.

B3: mHE cold competitor (dsDNA)
DNA 1: TTCGTTGAGTGTAGTGTTGC
DNA 2: GCAACACTACACTCAACGAA
On to B3, for which, in the data set with Fhl1 [1], the binding result is “no binding”.

B4: HomolE probe (two tandem HomolE boxes) (dsDNA)
DNA 1: TTCGTTGAGGGTAGGGTTGAGGGTAGGGTTATGC
DNA 2: GCATAACCCTACCCTCAACCCTACCCTCAACGAA
For B4, the binding result with Fhl1 [3] was “binds”.
